Numbered stars: 1 amine (or outer) side, 2 acyl side, 3 side chain; on linkers, the order of the positions; unused ones are H or OH. Bridge positions count the residues as written; N and C are the ends. Square brackets hold non-standard residues; d marks the D form. Side chains are listed from the residue outwards. Ends that are not written are not given here. * marks the point of attachment. C18 diacid = O=C(O)CCCCCCCCCCCCCCCCC(=O)*; γGlu = O=C(O)[C@H](CCC(=O)[*:2])N[*:1]; AEEA = NCCOCCOCC(=O)O; Aib = CC(C)(N)C(=O)O
T1: human calcitonin receptor (human, UniProt P30988 25-474)
T1 sequence (looked up): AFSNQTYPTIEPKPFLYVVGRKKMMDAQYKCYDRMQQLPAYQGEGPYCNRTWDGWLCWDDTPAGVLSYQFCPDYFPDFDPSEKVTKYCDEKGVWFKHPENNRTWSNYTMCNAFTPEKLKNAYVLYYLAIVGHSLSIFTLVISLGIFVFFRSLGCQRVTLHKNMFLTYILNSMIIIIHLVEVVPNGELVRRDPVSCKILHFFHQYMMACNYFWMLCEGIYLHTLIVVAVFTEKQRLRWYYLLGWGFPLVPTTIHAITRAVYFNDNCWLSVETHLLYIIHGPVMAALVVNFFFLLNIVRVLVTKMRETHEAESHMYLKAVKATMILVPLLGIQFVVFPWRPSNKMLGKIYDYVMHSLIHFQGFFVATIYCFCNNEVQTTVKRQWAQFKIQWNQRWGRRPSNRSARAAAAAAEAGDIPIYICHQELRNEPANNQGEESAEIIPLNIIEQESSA

T2: human amylin receptor (calcitonin receptor co-expressed with receptor activity modifying protein, RAMP3) (human, UniProt P30988 25-474; O60896 24-148)
T2 sequence (looked up) 1: T1 sequence (looked up)
T2 sequence (looked up) 2: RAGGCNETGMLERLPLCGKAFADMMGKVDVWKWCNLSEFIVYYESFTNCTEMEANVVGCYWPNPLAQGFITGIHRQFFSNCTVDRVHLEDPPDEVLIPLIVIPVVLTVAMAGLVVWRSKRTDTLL

B1: Peptide 55 (SEQ ID NO: 55) (peptide)
peptide: K([γGlu-C18 diacid])KCNTATCATQRLANFLSHSS[Aib]NFGPILPPTNVGSPTY-NH2
modifications: disulfide 3-8; N-terminus assumed
SMILES: CC[C@H](C)[C@H](NC(=O)[C@@H]1CCCN1C(=O)CNC(=O)[C@H](Cc1ccccc1)NC(=O)[C@H](CC(N)=O)NC(=O)C(C)(C)NC(=O)[C@H](CO)NC(=O)[C@H](CO)NC(=O)[C@H](Cc1c[nH]cn1)NC(=O)[C@H](CO)NC(=O)[C@H](CC(C)C)NC(=O)[C@H](Cc1ccccc1)NC(=O)[C@H](CC(N)=O)NC(=O)[C@H](C)NC(=O)[C@H](CC(C)C)NC(=O)[C@H](CCCNC(=N)N)NC(=O)[C@H](CCC(N)=O)NC(=O)[C@@H](NC(=O)[C@H](C)NC(=O)[C@@H]1CSSC[C@H](NC(=O)[C@H](CCCCN)NC(=O)[C@@H](N)CCCCNC(=O)CC[C@H](NC(=O)CCCCCCCCCCCCCCCCC(=O)O)C(=O)O)C(=O)N[C@@H](CC(N)=O)C(=O)N[C@@H]([C@@H](C)O)C(=O)N[C@@H](C)C(=O)N[C@@H]([C@@H](C)O)C(=O)N1)[C@@H](C)O)C(=O)N[C@@H](CC(C)C)C(=O)N1CCC[C@H]1C(=O)N1CCC[C@H]1C(=O)N[C@H](C(=O)N[C@@H](CC(N)=O)C(=O)N[C@H](C(=O)NCC(=O)N[C@@H](CO)C(=O)N1CCC[C@H]1C(=O)N[C@H](C(=O)N[C@@H](Cc1ccc(O)cc1)C(N)=O)[C@@H](C)O)C(C)C)[C@@H](C)O
B2: Peptide 56 (SEQ ID NO: 56) (peptide)
peptide: K([γGlu-C18 diacid])CNTATCATQRLANFLVHSS[Aib]NFGPILPPTNVGSNTY-NH2
modifications: disulfide 2-7; N-terminus assumed
SMILES: CC[C@H](C)[C@H](NC(=O)[C@@H]1CCCN1C(=O)CNC(=O)[C@H](Cc1ccccc1)NC(=O)[C@H](CC(N)=O)NC(=O)C(C)(C)NC(=O)[C@H](CO)NC(=O)[C@H](CO)NC(=O)[C@H](Cc1c[nH]cn1)NC(=O)[C@@H](NC(=O)[C@H](CC(C)C)NC(=O)[C@H](Cc1ccccc1)NC(=O)[C@H](CC(N)=O)NC(=O)[C@H](C)NC(=O)[C@H](CC(C)C)NC(=O)[C@H](CCCNC(=N)N)NC(=O)[C@H](CCC(N)=O)NC(=O)[C@@H](NC(=O)[C@H](C)NC(=O)[C@@H]1CSSC[C@H](NC(=O)[C@@H](N)CCCCNC(=O)CC[C@H](NC(=O)CCCCCCCCCCCCCCCCC(=O)O)C(=O)O)C(=O)N[C@@H](CC(N)=O)C(=O)N[C@@H]([C@@H](C)O)C(=O)N[C@@H](C)C(=O)N[C@@H]([C@@H](C)O)C(=O)N1)[C@@H](C)O)C(C)C)C(=O)N[C@@H](CC(C)C)C(=O)N1CCC[C@H]1C(=O)N1CCC[C@H]1C(=O)N[C@H](C(=O)N[C@@H](CC(N)=O)C(=O)N[C@H](C(=O)NCC(=O)N[C@@H](CO)C(=O)N[C@@H](CC(N)=O)C(=O)N[C@H](C(=O)N[C@@H](Cc1ccc(O)cc1)C(N)=O)[C@@H](C)O)C(C)C)[C@@H](C)O
B3: Peptide 59 (SEQ ID NO: 59) (peptide)
peptide: K([γGlu-C18 diacid])CNTATCATQRLANFLVHSS[Aib]NFGPI[dL]PPTNVGSNTY-NH2
modifications: disulfide 2-7; N-terminus assumed
SMILES: CC[C@H](C)[C@H](NC(=O)[C@@H]1CCCN1C(=O)CNC(=O)[C@H](Cc1ccccc1)NC(=O)[C@H](CC(N)=O)NC(=O)C(C)(C)NC(=O)[C@H](CO)NC(=O)[C@H](CO)NC(=O)[C@H](Cc1c[nH]cn1)NC(=O)[C@@H](NC(=O)[C@H](CC(C)C)NC(=O)[C@H](Cc1ccccc1)NC(=O)[C@H](CC(N)=O)NC(=O)[C@H](C)NC(=O)[C@H](CC(C)C)NC(=O)[C@H](CCCNC(=N)N)NC(=O)[C@H](CCC(N)=O)NC(=O)[C@@H](NC(=O)[C@H](C)NC(=O)[C@@H]1CSSC[C@H](NC(=O)[C@@H](N)CCCCNC(=O)CC[C@H](NC(=O)CCCCCCCCCCCCCCCCC(=O)O)C(=O)O)C(=O)N[C@@H](CC(N)=O)C(=O)N[C@@H]([C@@H](C)O)C(=O)N[C@@H](C)C(=O)N[C@@H]([C@@H](C)O)C(=O)N1)[C@@H](C)O)C(C)C)C(=O)N[C@H](CC(C)C)C(=O)N1CCC[C@H]1C(=O)N1CCC[C@H]1C(=O)N[C@H](C(=O)N[C@@H](CC(N)=O)C(=O)N[C@H](C(=O)NCC(=O)N[C@@H](CO)C(=O)N[C@@H](CC(N)=O)C(=O)N[C@H](C(=O)N[C@@H](Cc1ccc(O)cc1)C(N)=O)[C@@H](C)O)C(C)C)[C@@H](C)O
B4: Peptide 58 (SEQ ID NO: 58) (peptide)
peptide: K([γGlu-C18 diacid])KCNTATCATQRLANFLVHSS[Aib]NFGPILPPTNVGSNTP-NH2
modifications: disulfide 3-8; N-terminus assumed
SMILES: CC[C@H](C)[C@H](NC(=O)[C@@H]1CCCN1C(=O)CNC(=O)[C@H](Cc1ccccc1)NC(=O)[C@H](CC(N)=O)NC(=O)C(C)(C)NC(=O)[C@H](CO)NC(=O)[C@H](CO)NC(=O)[C@H](Cc1c[nH]cn1)NC(=O)[C@@H](NC(=O)[C@H](CC(C)C)NC(=O)[C@H](Cc1ccccc1)NC(=O)[C@H](CC(N)=O)NC(=O)[C@H](C)NC(=O)[C@H](CC(C)C)NC(=O)[C@H](CCCNC(=N)N)NC(=O)[C@H](CCC(N)=O)NC(=O)[C@@H](NC(=O)[C@H](C)NC(=O)[C@@H]1CSSC[C@H](NC(=O)[C@H](CCCCN)NC(=O)[C@@H](N)CCCCNC(=O)CC[C@H](NC(=O)CCCCCCCCCCCCCCCCC(=O)O)C(=O)O)C(=O)N[C@@H](CC(N)=O)C(=O)N[C@@H]([C@@H](C)O)C(=O)N[C@@H](C)C(=O)N[C@@H]([C@@H](C)O)C(=O)N1)[C@@H](C)O)C(C)C)C(=O)N[C@@H](CC(C)C)C(=O)N1CCC[C@H]1C(=O)N1CCC[C@H]1C(=O)N[C@H](C(=O)N[C@@H](CC(N)=O)C(=O)N[C@H](C(=O)NCC(=O)N[C@@H](CO)C(=O)N[C@@H](CC(N)=O)C(=O)N[C@H](C(=O)N1CCC[C@H]1C(N)=O)[C@@H](C)O)C(C)C)[C@@H](C)O
B5: Peptide 53 (SEQ ID NO: 53) (peptide)
peptide: K([γGlu-C18 diacid])KCNTATCATQRLANFLSHSS[Aib]NFGPILPPTPVGSNTY-NH2
modifications: disulfide 3-8; N-terminus assumed
SMILES: CC[C@H](C)[C@H](NC(=O)[C@@H]1CCCN1C(=O)CNC(=O)[C@H](Cc1ccccc1)NC(=O)[C@H](CC(N)=O)NC(=O)C(C)(C)NC(=O)[C@H](CO)NC(=O)[C@H](CO)NC(=O)[C@H](Cc1c[nH]cn1)NC(=O)[C@H](CO)NC(=O)[C@H](CC(C)C)NC(=O)[C@H](Cc1ccccc1)NC(=O)[C@H](CC(N)=O)NC(=O)[C@H](C)NC(=O)[C@H](CC(C)C)NC(=O)[C@H](CCCNC(=N)N)NC(=O)[C@H](CCC(N)=O)NC(=O)[C@@H](NC(=O)[C@H](C)NC(=O)[C@@H]1CSSC[C@H](NC(=O)[C@H](CCCCN)NC(=O)[C@@H](N)CCCCNC(=O)CC[C@H](NC(=O)CCCCCCCCCCCCCCCCC(=O)O)C(=O)O)C(=O)N[C@@H](CC(N)=O)C(=O)N[C@@H]([C@@H](C)O)C(=O)N[C@@H](C)C(=O)N[C@@H]([C@@H](C)O)C(=O)N1)[C@@H](C)O)C(=O)N[C@@H](CC(C)C)C(=O)N1CCC[C@H]1C(=O)N1CCC[C@H]1C(=O)N[C@H](C(=O)N1CCC[C@H]1C(=O)N[C@H](C(=O)NCC(=O)N[C@@H](CO)C(=O)N[C@@H](CC(N)=O)C(=O)N[C@H](C(=O)N[C@@H](Cc1ccc(O)cc1)C(N)=O)[C@@H](C)O)C(C)C)[C@@H](C)O
B6: Peptide 54 (SEQ ID NO: 54) (peptide)
peptide: K([γGlu-C18 diacid])KCNTATCATQRLANFLSHSS[Aib]NFGPILPPTNVPSNTY-NH2
modifications: disulfide 3-8; N-terminus assumed
SMILES: CC[C@H](C)[C@H](NC(=O)[C@@H]1CCCN1C(=O)CNC(=O)[C@H](Cc1ccccc1)NC(=O)[C@H](CC(N)=O)NC(=O)C(C)(C)NC(=O)[C@H](CO)NC(=O)[C@H](CO)NC(=O)[C@H](Cc1c[nH]cn1)NC(=O)[C@H](CO)NC(=O)[C@H](CC(C)C)NC(=O)[C@H](Cc1ccccc1)NC(=O)[C@H](CC(N)=O)NC(=O)[C@H](C)NC(=O)[C@H](CC(C)C)NC(=O)[C@H](CCCNC(=N)N)NC(=O)[C@H](CCC(N)=O)NC(=O)[C@@H](NC(=O)[C@H](C)NC(=O)[C@@H]1CSSC[C@H](NC(=O)[C@H](CCCCN)NC(=O)[C@@H](N)CCCCNC(=O)CC[C@H](NC(=O)CCCCCCCCCCCCCCCCC(=O)O)C(=O)O)C(=O)N[C@@H](CC(N)=O)C(=O)N[C@@H]([C@@H](C)O)C(=O)N[C@@H](C)C(=O)N[C@@H]([C@@H](C)O)C(=O)N1)[C@@H](C)O)C(=O)N[C@@H](CC(C)C)C(=O)N1CCC[C@H]1C(=O)N1CCC[C@H]1C(=O)N[C@H](C(=O)N[C@@H](CC(N)=O)C(=O)N[C@H](C(=O)N1CCC[C@H]1C(=O)N[C@@H](CO)C(=O)N[C@@H](CC(N)=O)C(=O)N[C@H](C(=O)N[C@@H](Cc1ccc(O)cc1)C(N)=O)[C@@H](C)O)C(C)C)[C@@H](C)O

How the values were obtained:
[1] = target: T1, human calcitonin receptor; assay: cell-based or functional assay
[2] = target: T2, human amylin receptor (calcitonin …); assay: cell-based or functional assay

Row | Binder | EC50 (cAMP production) [1] [pM] | EC50 (cAMP production) [2] [pM] | Ratio (EC50 hCTR / EC50 hAMYR3) [2]
1 | B1 | 1870 | 678 | 3
2 | B2 | 493 | 70 | 7
3 | B3 | 809 | 157 | 5
4 | B4 | 65 | 71 | 1
5 | B5 | 235 | 98 | 2
6 | B6 | 1510 | 7590 | 0.2
7 | K([AEEA-AEEA-γGlu-C18 diacid])GGGKCNTATCATQRLANFLVHSSNNFGPILPPTNVGSNTY-NH2 (disulfide 6-11) [Peptide 7 (SEQ ID NO: 7)] | 2160 | 173 | 12

From patent US20220204580A1 (AstraZeneca / MedImmune, published 2022)
